Measurements: patent publication US20230203177A1 (Bristol-Myers Squibb, published 2023)
Residue numbers refer to the chain shown, from its start. Numbers in names are those of the source.

B1: M13 (HC-E46K,E62K / LC-wt) (antibody, human IgG1, kappa)
heavy: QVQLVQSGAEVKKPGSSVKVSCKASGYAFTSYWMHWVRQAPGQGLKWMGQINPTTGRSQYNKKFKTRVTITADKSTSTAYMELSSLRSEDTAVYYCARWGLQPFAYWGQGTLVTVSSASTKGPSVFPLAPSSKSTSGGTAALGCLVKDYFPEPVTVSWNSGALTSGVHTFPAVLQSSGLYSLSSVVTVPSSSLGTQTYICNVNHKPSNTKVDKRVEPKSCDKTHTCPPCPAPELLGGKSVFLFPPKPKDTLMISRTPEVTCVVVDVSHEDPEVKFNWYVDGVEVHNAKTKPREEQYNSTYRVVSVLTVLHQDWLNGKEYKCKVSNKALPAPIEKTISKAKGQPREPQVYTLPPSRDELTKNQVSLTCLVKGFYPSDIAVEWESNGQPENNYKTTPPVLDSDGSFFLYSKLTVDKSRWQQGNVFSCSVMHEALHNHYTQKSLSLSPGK
light: DIQMTQSPSFLSASVGDRVTITCKASQDVSTAVAWYQQKPGKAPKLLIYSASYRYTGVPSRFSGSGSGTDFTLTISSLQPEDFATYYCQQHYSTPWTFGGGTKVEIKRTVAAPSVFIFPPSDEQLKSGTASVVCLLNNFYPREAKVQWKVDNALQSGNSQESVTEQDSKDSTYSLSSTLTLSKADYEKHKVYACEVTHQGLSSPVTKSFNRGEC
notes: IgG1-P238K; proof of concept control with more positive charge; also called HC13/LC1
B2: M53 (HC-K12E,K13Q,K23E / LC-K45Q,R54Q,R61Q) (antibody, human IgG1, kappa)
heavy: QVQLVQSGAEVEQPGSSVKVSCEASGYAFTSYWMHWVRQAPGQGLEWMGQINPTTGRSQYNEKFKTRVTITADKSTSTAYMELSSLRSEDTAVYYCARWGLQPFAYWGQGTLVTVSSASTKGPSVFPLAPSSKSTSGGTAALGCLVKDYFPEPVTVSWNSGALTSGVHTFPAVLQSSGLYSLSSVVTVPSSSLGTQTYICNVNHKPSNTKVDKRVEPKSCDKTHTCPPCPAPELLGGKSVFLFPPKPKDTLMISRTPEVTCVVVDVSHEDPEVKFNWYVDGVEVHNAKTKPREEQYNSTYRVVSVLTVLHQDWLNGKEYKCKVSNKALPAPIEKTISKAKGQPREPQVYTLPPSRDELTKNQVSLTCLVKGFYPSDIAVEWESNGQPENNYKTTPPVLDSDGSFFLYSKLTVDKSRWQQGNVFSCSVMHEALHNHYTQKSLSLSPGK
light: B1 light with K45Q, R54Q, R61Q
notes: IgG1-P238K; also called HC5/LC4
B3: M37 (HC-K12E,K13Q,K23E / LC-K45E) (antibody, human IgG1, kappa)
heavy: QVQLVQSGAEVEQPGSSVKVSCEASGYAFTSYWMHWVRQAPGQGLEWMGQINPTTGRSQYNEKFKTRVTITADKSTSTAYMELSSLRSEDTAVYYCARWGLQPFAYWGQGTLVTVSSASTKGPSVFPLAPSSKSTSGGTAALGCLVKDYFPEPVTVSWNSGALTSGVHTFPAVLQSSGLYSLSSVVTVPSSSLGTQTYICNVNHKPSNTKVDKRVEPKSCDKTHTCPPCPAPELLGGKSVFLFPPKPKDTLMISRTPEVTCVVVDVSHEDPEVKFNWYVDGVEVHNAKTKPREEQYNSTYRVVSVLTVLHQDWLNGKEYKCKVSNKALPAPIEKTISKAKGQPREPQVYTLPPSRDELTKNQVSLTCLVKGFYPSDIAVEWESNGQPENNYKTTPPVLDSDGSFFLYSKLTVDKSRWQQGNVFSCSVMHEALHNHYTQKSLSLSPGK
light: B1 light with K45E
notes: IgG1-P238K; also called HC5/LC3
B4: M36 (HC-K12E / LC-K45E) (antibody, human IgG1, kappa)
heavy: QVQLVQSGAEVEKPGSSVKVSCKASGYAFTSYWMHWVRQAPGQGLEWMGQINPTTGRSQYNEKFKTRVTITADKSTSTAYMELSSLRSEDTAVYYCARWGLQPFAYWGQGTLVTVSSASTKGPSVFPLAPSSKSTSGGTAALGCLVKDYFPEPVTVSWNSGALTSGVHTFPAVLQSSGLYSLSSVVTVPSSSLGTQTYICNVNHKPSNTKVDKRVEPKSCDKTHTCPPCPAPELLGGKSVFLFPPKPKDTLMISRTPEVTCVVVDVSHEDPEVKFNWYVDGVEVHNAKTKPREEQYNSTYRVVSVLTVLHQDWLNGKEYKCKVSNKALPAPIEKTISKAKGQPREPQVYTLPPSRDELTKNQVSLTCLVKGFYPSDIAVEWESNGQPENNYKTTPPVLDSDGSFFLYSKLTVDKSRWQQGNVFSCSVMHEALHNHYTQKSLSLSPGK
light: B1 light with K45E
notes: IgG1-P238K; also called HC4/LC3
B5: M38 (HC-K12V,K19S,K23A / LC-K45E) (antibody, human IgG1, kappa, V domains shown)
VH: QVQLVQSGAEVVKPGSSVSVSCAASGYAFTSYWMHWVRQAPGQGLEWMGQINPTTGRSQYNEKFKTRVTITADKSTSTAYMELSSLRSEDTAVYYCARWGLQPFAYWGQGTLVTVSS
VL: DIQMTQSPSFLSASVGDRVTITCKASQDVSTAVAWYQQKPGKAPELLIYSASYRYTGVPSRFSGSGSGTDFTLTISSLQPEDFATYYCQQHYSTPWTFGGGTKVEIKR
notes: IgG1-P238K; also called HC6/LC3
B6: M33 (HC-wt / LC-K45E) (antibody, human IgG1, kappa)
heavy: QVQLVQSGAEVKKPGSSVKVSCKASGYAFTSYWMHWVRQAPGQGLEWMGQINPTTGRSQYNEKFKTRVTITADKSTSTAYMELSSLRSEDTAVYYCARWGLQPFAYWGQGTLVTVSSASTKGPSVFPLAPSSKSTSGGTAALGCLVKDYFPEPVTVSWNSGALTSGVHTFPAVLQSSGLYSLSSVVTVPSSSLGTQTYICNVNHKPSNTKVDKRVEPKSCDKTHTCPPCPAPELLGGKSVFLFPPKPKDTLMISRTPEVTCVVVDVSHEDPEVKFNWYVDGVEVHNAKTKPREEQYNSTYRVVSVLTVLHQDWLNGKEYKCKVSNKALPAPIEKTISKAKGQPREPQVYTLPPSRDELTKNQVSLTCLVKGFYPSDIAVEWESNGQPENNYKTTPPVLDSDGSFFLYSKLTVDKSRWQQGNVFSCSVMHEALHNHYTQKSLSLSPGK
light: B1 light with K45E
notes: IgG1-P238K; also called HC1/LC3
B7: M47 (HC-R67Q / LC-K45E) (antibody, human IgG1, kappa, V domains shown)
VH: B5 VH with V12K, S19K, A23K, R67Q
VL: B5 VL
notes: IgG1-P238K; also called HC15/LC3
B8: M49 (HC-wt / LC-K45Q,R54Q,R61Q) (antibody, human IgG1, kappa)
heavy: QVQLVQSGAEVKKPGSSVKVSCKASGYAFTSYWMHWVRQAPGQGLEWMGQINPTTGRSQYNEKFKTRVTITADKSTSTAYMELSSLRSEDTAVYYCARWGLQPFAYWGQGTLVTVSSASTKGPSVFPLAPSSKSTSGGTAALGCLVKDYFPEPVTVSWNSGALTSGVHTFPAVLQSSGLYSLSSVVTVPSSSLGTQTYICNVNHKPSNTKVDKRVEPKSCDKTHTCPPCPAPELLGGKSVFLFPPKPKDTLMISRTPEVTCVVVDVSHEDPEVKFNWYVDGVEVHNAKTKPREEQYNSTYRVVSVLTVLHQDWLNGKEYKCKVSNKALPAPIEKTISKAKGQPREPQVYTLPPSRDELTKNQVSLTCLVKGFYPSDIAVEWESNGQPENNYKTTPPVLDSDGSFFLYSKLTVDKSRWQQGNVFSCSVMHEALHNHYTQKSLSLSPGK
light: B1 light with K45Q, R54Q, R61Q
notes: IgG1-P238K; also called HC1/LC4

biological target: human CD40 on primary human tonsillar B cells (human, UniProt P25942 21-277); experiment: cell-based or functional assay
Sequence (P25942 21-277 limits assumed): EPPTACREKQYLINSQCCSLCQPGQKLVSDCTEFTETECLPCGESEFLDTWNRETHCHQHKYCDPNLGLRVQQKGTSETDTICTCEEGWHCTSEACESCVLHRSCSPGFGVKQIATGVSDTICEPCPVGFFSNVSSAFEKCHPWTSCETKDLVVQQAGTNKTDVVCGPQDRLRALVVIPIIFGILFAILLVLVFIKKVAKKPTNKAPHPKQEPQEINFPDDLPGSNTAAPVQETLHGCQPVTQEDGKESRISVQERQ

Row | Binder | IC50, inhibition of tonsillar human B cell proliferation stimulated by IZ-hCD40L trimer [µg/mL] | IC50, inhibition of tonsillar human B cell proliferation stimulated by hCD40L expressing CHO cells [µg/mL]
1 | B1 | 0.0033 | 0.0208
2 | B2 | 0.0034 | 0.367
3 | B3 | 0.0009 | 0.129
4 | B4 | 0.0026 | 0.0477
5 | B5 | 0.0072 | 0.181
6 | B6 | 0.0009 | 0.0575
7 | B7 | 0.0004 | 0.0547
8 | B8 | 0.0007 | 0.0672

biological target: T1, soluble human CD40 extracellular domain (human, UniProt P25942 21-193); experiment: SPR, purified Ab on protein A, 6 concentrations of hCD40 ECD
T1 construct: Produced in house; also called hCD40; soluble hCD40 extracellular domain
Description: Additionally, to more accurately define the dissociation rate (kd), a longer dissociation time of 360 seconds (s) was used as opposed to the shorter 180 s dissociation that had been used in the supernatant screening experiment.
CD40 binding SPR: SPR studies of the purified antibodies were conducted on BIAcore™ T200 instrument (GE Healthcare, Chicago Ill.). A Series S Protein A sensor chip (GE Healthcare, Chicago Ill.) was equilibrated with SPR running buffer of 10 mM NaPO₄, 130 mM NaCl, 0.05% tween 20, (PBS-T) pH 7.2 at 25° C. The purified antibody samples were diluted to 3 μg/ml in PBS-T and captured on the protein A surface for 30 s at 10 μl/min Binding of 3.91, 7.81, 15.6, 31.3, 62.5, and 125 nM human CD40 extracellular domain (produced in house) was evaluated using association time of 180 s at 30 μl/min, followed by a dissociation time of 360 s at 30 μl/min Regeneration between cycles was accomplished using two 15 s injections of 10 mM glycine pH 1.5. […] Data were analyzed using BIAcore™ T200 evaluation software by fitting to a 1:1 Langmuir model.

T1 sequence (P25942 21-193 limits assumed): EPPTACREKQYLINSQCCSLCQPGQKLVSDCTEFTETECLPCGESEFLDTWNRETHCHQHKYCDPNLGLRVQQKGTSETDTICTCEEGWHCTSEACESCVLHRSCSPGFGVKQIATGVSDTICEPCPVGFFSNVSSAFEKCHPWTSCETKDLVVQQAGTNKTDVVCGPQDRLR

Row | Binder | Kd [nM] | koff [s⁻¹] | kon [M⁻¹ s⁻¹]
9 | B1 | 8.4 | 0.00068 | 81000
10 | B2 | 2.5 | 0.0008 | 320000
11 | B3 | 3.3 | 0.00084 | 250000
12 | B4 | 2.6 | 0.00078 | 300000
13 | B5 | 2.8 | 0.00077 | 280000
14 | B6 | 2.9 | 0.00073 | 260000
15 | B7 | 2.2 | 0.00074 | 330000
16 | B8 | 2.2 | 0.0007 | 320000

biological target: T1, soluble human CD40 extracellular domain; experiment: SPR, Ab captured from supernatant on protein A, hCD40 ECD analyte
Procedure, shortened: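 Biacore T200, 25 °C, PBS-T pH 7.2; antibodies (3 μg/ml, supernatants titre-normalised) captured on protein A chip 30 s. Human CD40 ECD analyte (5 and 50 nM, or 50 and 500 nM), 180 s association and 180 s dissociation at 30 μl/min; 1:1 Langmuir fit.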

Row | Binder | Kd [nM]
17 | B1 | 8
18 | B2 | 3.2
19 | B3 | 4.1
20 | B4 | 3.4
21 | B5 | 3.9
22 | B6 | 4
23 | B7 | 3.2
24 | B8 | 3

biological target: T1, soluble human CD40 extracellular domain; experiment: SPR, antibody captured from supernatant on protein A chip, soluble hCD40 ECD at 5 and 50 nM (summary table of the 16 chosen antibodies)

Row | Binder | Kd [nM]
25 | B1 | 8
26 | B2 | 3.2
27 | B3 | 4.1
28 | B4 | 3.4
29 | B5 | 3.9
30 | B6 | 4
31 | B7 | 3.2
32 | B8 | 3
